In article PMC10690100 (Molecular Cancer Therapeutics, 2023):

Key:
[1] = molecular target: recombinant human integrin alpha-v/beta-5 (Homo sapiens, UniProt P06756;P18084); assay: ELISA
[2] = molecular target: recombinant human integrin alpha-v/beta-3 (Homo sapiens, UniProt P06756;P05106); assay: ELISA
[3] = molecular target: recombinant human integrin alpha-v/beta-8 (Homo sapiens, UniProt P06756;P26012); assay: ELISA
[4] = molecular target: recombinant human integrin alpha-v/beta-6 (Homo sapiens, UniProt P06756;P18564); assay: ELISA
[5] = molecular target: recombinant human integrin alpha-v/beta-1 (Homo sapiens, UniProt P06756;P05556); assay: ELISA
[6] = molecular target: human integrin beta-6 on 293F:hu beta-6 transfected cells (Homo sapiens, UniProt P06756;P18564); assay: flow cytometry on cells

Chain of recombinant human integrin alpha-v/beta-8 (P06756 31-1048, chain 1 of 2): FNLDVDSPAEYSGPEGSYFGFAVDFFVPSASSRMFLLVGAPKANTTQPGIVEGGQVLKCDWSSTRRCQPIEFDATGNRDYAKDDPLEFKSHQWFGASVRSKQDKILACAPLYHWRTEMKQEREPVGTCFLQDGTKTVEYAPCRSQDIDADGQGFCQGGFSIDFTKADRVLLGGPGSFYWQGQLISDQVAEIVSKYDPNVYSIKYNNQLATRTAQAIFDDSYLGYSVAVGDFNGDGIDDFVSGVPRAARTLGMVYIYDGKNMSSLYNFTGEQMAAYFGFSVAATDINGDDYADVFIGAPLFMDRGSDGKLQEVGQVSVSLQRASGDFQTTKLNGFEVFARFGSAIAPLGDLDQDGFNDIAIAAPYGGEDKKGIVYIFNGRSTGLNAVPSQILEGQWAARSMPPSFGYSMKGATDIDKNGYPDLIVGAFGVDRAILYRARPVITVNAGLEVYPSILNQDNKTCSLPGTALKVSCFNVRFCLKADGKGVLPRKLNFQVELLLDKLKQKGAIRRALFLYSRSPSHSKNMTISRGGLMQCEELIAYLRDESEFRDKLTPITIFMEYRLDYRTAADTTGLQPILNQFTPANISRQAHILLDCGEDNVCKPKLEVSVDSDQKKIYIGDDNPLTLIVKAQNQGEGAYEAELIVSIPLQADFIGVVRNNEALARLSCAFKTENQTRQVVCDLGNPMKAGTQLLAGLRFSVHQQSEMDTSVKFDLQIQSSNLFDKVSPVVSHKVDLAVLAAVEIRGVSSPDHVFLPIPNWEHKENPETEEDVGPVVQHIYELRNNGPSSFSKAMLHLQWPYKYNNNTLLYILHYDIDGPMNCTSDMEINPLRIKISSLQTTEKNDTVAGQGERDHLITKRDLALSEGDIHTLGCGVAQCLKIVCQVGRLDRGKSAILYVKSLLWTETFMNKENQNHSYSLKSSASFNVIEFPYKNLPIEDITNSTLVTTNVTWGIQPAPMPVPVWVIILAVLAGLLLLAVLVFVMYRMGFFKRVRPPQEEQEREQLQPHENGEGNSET
Chain of recombinant human integrin alpha-v/beta-8 (P26012 43-684, chain 2 of 2): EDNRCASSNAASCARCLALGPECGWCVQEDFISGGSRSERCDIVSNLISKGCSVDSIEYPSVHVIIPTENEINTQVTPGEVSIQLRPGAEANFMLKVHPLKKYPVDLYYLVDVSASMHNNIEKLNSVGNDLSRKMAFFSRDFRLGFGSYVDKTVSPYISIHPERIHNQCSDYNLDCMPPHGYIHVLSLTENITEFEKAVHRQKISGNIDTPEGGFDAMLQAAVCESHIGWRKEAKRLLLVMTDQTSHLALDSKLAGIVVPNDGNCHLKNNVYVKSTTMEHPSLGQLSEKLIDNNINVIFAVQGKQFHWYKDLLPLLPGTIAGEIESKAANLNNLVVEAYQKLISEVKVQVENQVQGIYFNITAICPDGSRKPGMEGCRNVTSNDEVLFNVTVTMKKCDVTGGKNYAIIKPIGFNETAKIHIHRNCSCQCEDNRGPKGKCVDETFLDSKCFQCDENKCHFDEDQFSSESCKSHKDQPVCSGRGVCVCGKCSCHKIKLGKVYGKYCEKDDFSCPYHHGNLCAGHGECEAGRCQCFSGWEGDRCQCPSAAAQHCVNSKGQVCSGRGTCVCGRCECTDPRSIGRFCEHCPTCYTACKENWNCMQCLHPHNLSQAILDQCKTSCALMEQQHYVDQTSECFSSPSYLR
Chain of recombinant human integrin alpha-v/beta-6 (P06756 31-1048, chain 1 of 2): as the sequence (P06756 31-1048, chain 1 of 2) above
Chain of recombinant human integrin alpha-v/beta-6 (P18564 22-709, chain 2 of 2): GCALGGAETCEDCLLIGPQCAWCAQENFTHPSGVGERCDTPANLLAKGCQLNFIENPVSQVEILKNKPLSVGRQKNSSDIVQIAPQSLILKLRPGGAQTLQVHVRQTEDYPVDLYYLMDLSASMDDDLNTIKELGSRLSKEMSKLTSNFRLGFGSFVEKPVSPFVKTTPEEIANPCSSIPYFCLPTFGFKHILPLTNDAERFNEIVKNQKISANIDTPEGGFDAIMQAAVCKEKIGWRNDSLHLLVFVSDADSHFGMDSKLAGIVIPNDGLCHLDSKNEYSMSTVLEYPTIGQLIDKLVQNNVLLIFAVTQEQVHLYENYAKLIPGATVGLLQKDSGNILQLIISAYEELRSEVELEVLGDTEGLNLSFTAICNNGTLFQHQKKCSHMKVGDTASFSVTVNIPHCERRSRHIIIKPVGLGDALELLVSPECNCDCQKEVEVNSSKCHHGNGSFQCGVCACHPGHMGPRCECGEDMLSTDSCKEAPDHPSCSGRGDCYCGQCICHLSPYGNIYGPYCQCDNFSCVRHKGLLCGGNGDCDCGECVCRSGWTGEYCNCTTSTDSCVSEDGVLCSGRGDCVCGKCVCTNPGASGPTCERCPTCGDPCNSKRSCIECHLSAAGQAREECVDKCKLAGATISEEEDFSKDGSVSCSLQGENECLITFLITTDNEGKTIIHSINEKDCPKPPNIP
Chain of recombinant human integrin alpha-v/beta-3 (P06756 31-1048, chain 1 of 2): as the sequence (P06756 31-1048, chain 1 of 2) above
Chain of recombinant human integrin alpha-v/beta-3 (P05106 27-718, chain 2 of 2): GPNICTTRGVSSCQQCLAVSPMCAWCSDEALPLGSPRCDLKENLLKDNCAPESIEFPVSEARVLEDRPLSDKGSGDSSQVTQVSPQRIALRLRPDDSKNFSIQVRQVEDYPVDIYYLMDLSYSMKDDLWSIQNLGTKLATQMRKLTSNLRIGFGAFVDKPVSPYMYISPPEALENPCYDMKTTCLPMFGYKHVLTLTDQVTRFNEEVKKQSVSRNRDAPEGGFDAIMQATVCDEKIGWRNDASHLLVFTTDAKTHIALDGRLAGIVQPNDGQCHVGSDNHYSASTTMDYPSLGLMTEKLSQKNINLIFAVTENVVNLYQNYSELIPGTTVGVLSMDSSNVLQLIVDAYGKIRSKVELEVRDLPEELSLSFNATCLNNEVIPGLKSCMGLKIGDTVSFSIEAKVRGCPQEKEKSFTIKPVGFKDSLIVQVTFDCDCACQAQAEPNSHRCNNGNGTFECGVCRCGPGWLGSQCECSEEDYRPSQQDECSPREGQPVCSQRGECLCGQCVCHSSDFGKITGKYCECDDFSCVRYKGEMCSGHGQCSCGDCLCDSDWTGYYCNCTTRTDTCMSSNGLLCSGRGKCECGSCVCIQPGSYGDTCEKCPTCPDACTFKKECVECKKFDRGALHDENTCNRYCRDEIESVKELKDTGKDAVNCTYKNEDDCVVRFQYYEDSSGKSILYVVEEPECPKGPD
Chain of recombinant human integrin alpha-v/beta-5 (P06756 31-1048, chain 1 of 2): as the sequence (P06756 31-1048, chain 1 of 2) above
Chain of recombinant human integrin alpha-v/beta-5 (P18084 24-719, chain 2 of 2): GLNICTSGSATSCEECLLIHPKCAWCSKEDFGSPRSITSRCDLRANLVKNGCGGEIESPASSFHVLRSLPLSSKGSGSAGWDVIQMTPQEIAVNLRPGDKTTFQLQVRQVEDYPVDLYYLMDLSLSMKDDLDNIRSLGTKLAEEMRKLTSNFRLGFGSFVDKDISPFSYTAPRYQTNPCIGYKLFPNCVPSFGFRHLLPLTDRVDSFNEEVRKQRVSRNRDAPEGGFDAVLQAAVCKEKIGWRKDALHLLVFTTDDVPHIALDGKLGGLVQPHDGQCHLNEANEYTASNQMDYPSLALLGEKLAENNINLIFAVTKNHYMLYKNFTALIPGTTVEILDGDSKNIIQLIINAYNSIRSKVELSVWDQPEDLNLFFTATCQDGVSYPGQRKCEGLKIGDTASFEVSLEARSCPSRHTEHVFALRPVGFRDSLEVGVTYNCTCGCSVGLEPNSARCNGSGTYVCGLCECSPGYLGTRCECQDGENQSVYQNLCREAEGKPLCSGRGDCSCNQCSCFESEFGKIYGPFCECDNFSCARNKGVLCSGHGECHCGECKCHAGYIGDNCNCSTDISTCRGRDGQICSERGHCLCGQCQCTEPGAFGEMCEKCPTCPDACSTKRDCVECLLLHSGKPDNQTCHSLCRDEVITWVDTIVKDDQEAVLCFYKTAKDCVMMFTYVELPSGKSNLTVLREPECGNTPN
Chain of recombinant human integrin alpha-v/beta-1 (P06756 31-1048, chain 1 of 2): as the sequence (P06756 31-1048, chain 1 of 2) above
Chain of recombinant human integrin alpha-v/beta-1 (P05556 21-728, chain 2 of 2): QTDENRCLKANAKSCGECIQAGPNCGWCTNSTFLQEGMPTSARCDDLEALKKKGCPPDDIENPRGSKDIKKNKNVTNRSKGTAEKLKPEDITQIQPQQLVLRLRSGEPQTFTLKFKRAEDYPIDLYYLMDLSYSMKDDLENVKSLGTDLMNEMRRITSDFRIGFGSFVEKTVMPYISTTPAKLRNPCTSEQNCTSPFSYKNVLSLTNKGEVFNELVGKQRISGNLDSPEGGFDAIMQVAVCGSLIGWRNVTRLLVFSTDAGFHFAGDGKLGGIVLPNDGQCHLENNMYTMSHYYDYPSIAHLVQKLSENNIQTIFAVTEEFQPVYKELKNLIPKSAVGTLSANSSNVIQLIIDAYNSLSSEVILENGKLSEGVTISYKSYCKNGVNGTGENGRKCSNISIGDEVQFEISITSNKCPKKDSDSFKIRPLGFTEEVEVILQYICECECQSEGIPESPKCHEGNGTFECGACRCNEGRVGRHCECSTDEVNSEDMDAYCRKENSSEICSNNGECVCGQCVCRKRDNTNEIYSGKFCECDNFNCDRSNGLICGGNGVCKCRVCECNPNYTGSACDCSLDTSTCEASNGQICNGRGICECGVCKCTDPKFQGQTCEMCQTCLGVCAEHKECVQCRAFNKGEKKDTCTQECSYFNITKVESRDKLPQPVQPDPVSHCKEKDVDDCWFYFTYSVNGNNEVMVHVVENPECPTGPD

binding result [1] | binding result [2] | binding result [3] | EC50 [4] [nM] | binding result [5] | EC50 [6] [nM] | Binder
no binding | no binding | no binding | 0.9 | no binding | – | SGN-B6A (h2A2 conjugated to the vedotin drug-linker) (antibody, V domains shown) VH: QFQLVQSGAEVKKPGASVKVSCKASGYSFTDYNVNWVRQAPGQGLEWIGVINPKYGTTRYNQKFKGRATLTVDKSTSTAYMELSSLRSEDTAVYYCTRGLNAWDYWGQGTLVTVSS VL: DIQMTQSPSSLSASVGDRVTITCGASENIYGALNWYQQKPGKAPKLLIYGATNLEDGVPSRFSGSGSGRDYTFTISSLQPEDIATYYCQNVLTTPYTFGQGTKLEIK
no binding | no binding | no binding | 0.7 | no binding | 0.3 | h2A2 (humanized 2A2 anti-integrin beta-6 antibody) (antibody, V domains shown) VH: QFQLVQSGAEVKKPGASVKVSCKASGYSFTDYNVNWVRQAPGQGLEWIGVINPKYGTTRYNQKFKGRATLTVDKSTSTAYMELSSLRSEDTAVYYCTRGLNAWDYWGQGTLVTVSS VL: DIQMTQSPSSLSASVGDRVTITCGASENIYGALNWYQQKPGKAPKLLIYGATNLEDGVPSRFSGSGSGRDYTFTISSLQPEDIATYYCQNVLTTPYTFGQGTKLEIK
